Two substances from patent US20110143963A1 can be followed below.

Assay [1] deals with eSH2-3 (human) (UniProt P62993). Description: competition phage ELISA: eSH2-3 phage pre-incubated with free pY1139 peptide, unbound phage captured.
The target of assay [2] is eSH2-6 (human) (UniProt P62993). The assay can be described thus: competition phage ELISA: eSH2-6 phage pre-incubated with free pY1139 peptide, unbound phage captured.
Assay [3] deals with eSH2-3 (human) (UniProt P62993). Description: panel B, competition phage ELISA: eSH2-3 phages incubated with free pY1139 peptide (0 to 50 nM), phages not bound to the free peptide captured and detected.
Assay [4] has as its target eSH2-6 (human) (UniProt P62993). Description: panel C, competition phage ELISA: eSH2-6 phages incubated with free pY1139 peptide (0 to 50 nM), phages not bound to the free peptide captured and detected.
Assay [5] has as its target SH2 domain of human Grb2 (human) (UniProt P62993). Description: panel D, competition phage ELISA: wtSH2 (Grb2-SH2) phages incubated with free pY1139 peptide (0 to about 2200 nM), phages not bound to the free peptide captured and detected.
Assay [6] addresses ARVCF peptide PQPVDSWV-COOH (eight-residue motif corresponding to the ARVCF C-terminus). The assay can be described thus: SPR (BIAcore).
The target in assay [7] is δ-catenin peptide PASPDSWV-COOH. The assay can be described thus: SPR (BIAcore).

Sequence of SH2 domain of human Grb2 (human) (P62993 56-153 limits assumed): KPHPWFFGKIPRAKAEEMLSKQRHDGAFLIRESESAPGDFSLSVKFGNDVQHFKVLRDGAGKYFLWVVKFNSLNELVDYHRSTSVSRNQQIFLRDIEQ

In the case of “pY-containing peptide corresponding to residues 1130-1146 of ErbB2 (HER2) pY1139”, the IC50 with eSH2-3 (human) [1] was 90 µM; with eSH2-6 (human) [2], 90 µM; in the assay with eSH2-3 (human) [3], 0.09 nM; in the assay with eSH2-6 (human) [4] it was 0.09 nM; in assay [5], 0.07 µM.
With “PDZ domain of Erbin (wild-type) (from UniProt Q96RT1 1314-1412)”, the Kd in assay [6] and in assay [7] was 10 µM in each case.
